# Experimental data: publication PMC4360655
# Assays:
# P15381 = assay: FRET or BRET; living tsA-201 cells expressing CaV1.2-EGFP (donor) and CaV1.2-tagRFP (acceptor), confocal; FRETr = RFPg/GFPg; followed during flash photolysis of caged Ca2+ at −80 mV, during a 500-ms depolarization from −80 to +10 mV (10 mM EGTA in the pipette), and at 0-5000 nM Ca2+ with 1 μM …
# [1] = biological target: CaV1.2 channel pore-forming subunit (α1c) tagged at its C-terminus with a half of split Venus (CaV1.2-VN155(I152L) and CaV1.2-VC155) (rabbit) (UniProt P15381)
Substance,"time for FRETr to decay to 50% of the peak (T50%), with m5 (P15381) [s for FRETr]",CaV1.2 sparklet density after against before the depolarization that fuses CaV1.2-VN and CaV1.2-VC [1] [fold]
CaV1.2 channel pore-forming subunit (α1c) tagged at its C-terminus with EGFP or tagRFP (CaV1.2-EGFP and CaV1.2-tagRFP),0.63 ± 0.23,–
CaV1.2 channel pore-forming subunit (α1c) tagged at its C-terminus with a half of split Venus (CaV1.2-VN155(I152L) and CaV1.2-VC155) (from UniProt P15381 1-2171) (natural protein),–,10
